Results: US20240400641A1 (EMORY UNIVERSITY, published 2024)
Where no end group is shown, it is not given here.

Target: T1, mouse PD-L1 (mouse, UniProt Q9EP73 19-290)
T1 construct: whole, on cells; Endogenous protein of mouse tumor cell lines; also called PD-L1 on mouse pancreatic cancer KC, Panc02 and KPC cells
Assay: peptide-IONP conjugates on KC and Panc02 cells, Prussian blue staining

T1 sequence (Q9EP73 19-290): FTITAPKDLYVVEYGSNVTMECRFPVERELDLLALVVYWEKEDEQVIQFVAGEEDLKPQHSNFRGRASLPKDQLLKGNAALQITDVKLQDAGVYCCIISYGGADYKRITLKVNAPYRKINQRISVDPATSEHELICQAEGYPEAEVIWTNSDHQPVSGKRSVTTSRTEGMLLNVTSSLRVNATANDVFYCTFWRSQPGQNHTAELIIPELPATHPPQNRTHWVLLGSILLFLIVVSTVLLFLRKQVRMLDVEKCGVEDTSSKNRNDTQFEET

| Binder | binding result |
| --- | --- |
| NWNRLSPSNQTEKQAACGAISLHPKAKIEESPGHHHH (also: FITC label in competition assay, place not given here, bound via His tag to NTA-Cu on IONPs or NTA-Ni beads, Tested as FITC-labelled free peptide, as IONP conjugate and on NTA-Ni beads; also called PD-1 like peptide; PD-1 Lin-IONP (when conjugated to iron oxide nanoparticles)) [PD-1 (Lin) peptide] | binds |
| NWNRLSPSNQTEKQAAPHHHHCGAISLHPKAKIEE (not fully specified; also: FITC label in competition assay, place not given here, also called PDIY; PD-1 like peptide) [PD-1 (Y) peptide] | binds |
